Assay results published in the DeepSol protein solubility set.

Assay: soluble on expression in E. coli; label from the status in PepcDB or PDB records

| Sequence | soluble on expression in E. coli |
| --- | --- |
| MDERWMVMKITIVFENHAGYRKGLIGYHGFSALVEANGYRVLVDTGTDGKVLLNNMSELGISPDDIDALFITHGHYDHTGGLRELLSARTEALDIYAHPGIFKRRLALKPKKREIGIPFTREELEELGGKFILSDKSKEILPGFISSGEIERITWDRAVGYFPDGSKDPVRDDMALIVEEGSKSVVITGCGHSGIINIAIHSKKLTNNRIAALIGGFHLKGIERSLLDEAVKKLRELEIEKLYPGHCTGIEEFAYLWSKFGNVEGIHVGKEIKILEHHHHHH | soluble |
| MDFDMIEEKKDSVIVRNVENFELKDIFDCGQCFRWHRQENGNYIGIAFEKVVEVQKIGEDVVIYNINEEEFKNVWSEYFDLYRDYGEIKKELSRDPLLKKSVDFGEGIRILRQDPFEILLSFIISANNRIPMIKKCINNISEKAGKKLEYKGKIYYAFPTVDKLHEFTEKDFEECTAGFRAKYLKDTVDRIYNGELNLEYIKSLNDNECHEELKKFMGVGPQVADCIMLFSMQKYSAFPVDTWVKKAMMSLYVAPDVSLKKIRDFGREKFGSLSGFAQQYLFYYARENNIQL | soluble |
| MDFLSREGSPISAELWEKIDEAVVSAAKKILTGRRFISIYGPLGAGIQAINVDNISELDETEENISVIRGRTYRHIPLINEDFSLLWRDLEFSEQMGLPVDLSSASRAATQCALREDKLIFYGNDELGYKGLLTEDGIVKFPISNWSEGENPFKDISIGLAKFIENGIVGRKALVVSPNLFVQLQRIQPGTGTTEYDRINKLLDGNIFSTPVLKDDKAVLVCSEPQNIDLVIGQDMITSYLETKNLNHYFRIMETILLRIKNKKAVIVFD | not soluble |
| MDFRANLQRQVKPKTVSEEERKVHSPQQVDFRSVLAKKGTSKTPVPEKVPPPKPATPDFRSVLGGKKKLPAENGSSSAETLNAKAVESSKPLSNAQPSGPLKPVGNAKPAETLKPMGNAKPAETLKPMGNAKPDENLKSASKELKKDVKNDVNCKRGHAGTTDNEKRSESQGTAPAFKQKLQDVHVAEGKKLLLQCQVSSDPPATIIWTLNGKTLKTTKFIILSQEGSLCSVSIEKALPEDRGLYKCVAKNDAGQAECSCQVTVDDAPASENTKAPEMKSRRPKSSLPPVLGTESDATVKKKPAPKTPPKAAMPPQIIQFPEDQKVRAGESVELFGKVTGTQPITCTWMKFRKQIQESEHMKVENSENGSKLTILAARQEHCGCYTLLVENKLGSRQAQVNLTVVDKPDPPAGTPCASDIRSSSLTLSWYGSSYDGGSAVQSYSIEIWDSANKTWKELATCRSTSFNVQDLLPDHEYKFRVRAINVYGTSEPSQESELTTVGEKPEEPKDEVEVSDDDEKEPEVDYRTVTINTEQKVSDFYDIEERLGSGKFGQVFRLVEKKTRKVWAGKFFKAYSAKEKENIRQEISIMNCLHHPKLVQCVDAFEEKANIVMVLEIVSGGELFERIIDEDFELTERECIKYMRQISEGVEYIHKQGIVHLDLKPENIMCVNKTGTRIKLIDFGLARRLENAGSLKVLFGTPEFVAPEVINYEPIGYATDMWSIGVICYILVSGLSPFMGDNDNETLANVTSATWDFDDEAFDEISDDAKDFISNLLKKDMKNRLDCTQCLQHPWLMKDTKNMEAKKLSKDRMKKYMARRKWQKTGNAVRAIGRLSSMAMISGLSGRKSSTGSPTSPLNAEKLESEEDVSQAFLEAVAEEKPHVKPYFSKTIRDLEVVEGSAARFDCKIEGYPDPEVVWFKDDQSIRESRHFQIDYDEDGNCSLIISDVCGDDDAKYTCKAVNSLGEATCTAELIVETMEEGEGEGEEEEE | soluble |
| MDFYYLPGSAPCRAVQMTAAAVGVELNLKLTDLMKGEHMKPEFLKLNPQHCIPTLVDNGFALWESRAIQIYLAEKYGKDDKLYPKDPQKRAVVNQRLYFDMGTLYQRFADYHYPQIFAKQPANPENEKKMKDAVGFLNTFLEGQEYAAGNDLTIADLSLAATIATYEVAGFDFAPYPNVAAWFARCKANAPGYALNQAGADEFKAKFLS | soluble |
| MDGHYEVSKSILINRSSPDVFAYVSHIKNQEHYSVWAKRDTNSIKTYRGRDGVVGFTATWKSEMKKVGQGEQEIKKIIPNKRIDLELRFFKPFEATDHVFMETIAQDEEETKVVWGFDGEMAYPVNFFLLFVDMEDVLGGDLETGLVNLKTILESKLEHHHHHH | soluble |
| MDGTMEDSEAVQRATALIEQRLAQEEENEKLRGDTRQKLPMDLLVLEDEKHHGAQSAALQKVKGQERVRKTSLDLRREIIDVGGIQNLIELRKKRKQKKRDALAASHEPPPEPEEITGPVDEETFLKAAVEGKMKVIEKFLADGGSADTCDQFRRTALHRASLEGHMEILEKLLDNGATVDFQDRLDCTAMHWACRGGHLEVVKLLQSHGADTNVRDKLLSTPLHVAVRTGQVEIVEHFLSLGLEINARDREGDTALHDAVRLNRYKIIKLLLLHGADMMTKNLAGKTPTDLVQLWQADTRHALEHPEPGAEHNGLEGPNDSGRETPQPVPAQLEHHHHHH | not soluble |
| MDGYQLTFSNNKRSDKSIVSEKLQRDCDPPITQKYFWSSGGHTFHFRAAAAEKNVTPFSTKMQGKYIKKKAM | not soluble |
| MDHPVQLSIENPAVSMDSTGQILWAVQSEIQAVYLRSLFEQKEANDGERLTLSVKNLGSSEISPQTLAHSSNGHFFMACGDGKYIVYTYKQYDAIALKIRHYGQGLEFVWAAHPNMFAVRESATNVKIKKNFKDHKSIRSDMMLEGISGGPLLALRSNDSLCFFDWESAALVRRIEITSKSVYWSDNREMVAICGDDSFYVFKYSAEAVANATEVTEDGIEDAFKVIGEQAEAVETGFWIGDCFIFTTALTINRINHYAGGEIVTVAHVDRPLCLLGYMAEDSRVYAVDKDLNVISYELFQSDLEYQTATMRRDIGTRGGPQICRICRLPSSANLPNLPSTANFKKVDLPNLPSSANFEICRTQYNFD | not soluble |
| MDIISKSGEGNKYTINSAIAFVAYASHIDINTTEFSKVLSGLRDFINDEAIRLGGKISDGSFNKCNGDWYEWLIGIRAIEFFLESETNFIVVKMPNATSFDVMSIYKSCLSEFIYDLRSKLSLNNVNLITSNPDFSIIDIRGRREELKSMLKDISFSNISLSTISEIDNLYKNFIDYAELEHIKSFLSVKTTFRPDRRLQLAHEGSLMKALYTHLQTRTWTINPTGIRYYAAATSIGNADVIGLKTVATHSITDVKSLPQSAVDEIFKINSVLDVDSCLSHILSS | soluble |
| MDIPIPTRQLFINGDWKAPVLNKRIPVINPATQNIIGDIPAATKEDVDVAVAAAKTALTRNKGADWATASGAVRARYLRAIAAKVTEKKPELAKLESIDCGKPLDEAAWDIDDVAGCFEYYADLAEKLDARQKAPVSLPMDTFKSHVLREPIGVVGLITPWNYPMLMATWKVAPALAAGCAAILKPSELASLTCLELGEICKEVGLPPGVLNILTGLGPEAGAPLATHPDVDKVAFTGSSATGSKIMTAAAQLVKPVSLELGGKSPLVVFEDVDLDKAAEWAIFGCFWTNGQICSATSRLILHESIATEFLNRIVKWIKNIKISDPLEEGCRLGPVVSEGQYEKILKFVSNAKSEGATILTGGSRPEHLKKGFFIEPTIITDVTTNMQIWREEVFGPVLCVKTFSTEEEAIDLANDTVYGLGAAVISNDLERCERVTKAFKAGIVWVNCSQPCFTQAPWGGVKRSGFGRELGEWGLDNYLSVKQVTQYISEEPWGWYQPPAKL | soluble |
| MDIPRIFTISESEHRIHNPFTEEKYATLGRVLRMKPGTRILDLGSGSGEMLCTWARDHGITGTGIDMSSLFTAQAKRRAEELGVSERVHFIHNDAAGYVANEKCDVAACVGATWIAGGFAGAEELLAQSLKPGGIMLIGEPYWRQLPATEEIAQACGVSSTSDFLTLPGLVGAFDDLGYDVVEMVLADQEGWDRYEAAKWLTMRRWLEANPDDDFAAEVRAELNIAPKRYVTYARECFGWGVFALIARLEHHHHHH | soluble |
| MDKKPSKKKVAIIGGGVAGSTIAMYLSKFDIEIDLFEQGTSLVNGPPICHLHAGGNLYREISDEQCIALLTESIQTAQFFPHSLNIRPTIIAVPKDDRAEASDLLPRLNLLQKHYLELIEQSKKNEVFGRPEDYFTTFTKQELFEIAKLEPTNQPRSMTEWMIPFAKTTDLEQIKYPVVIVQEYGLSVFRMASTAQLVLSEQSNVNLHLSCRVEKLNKQDNGNWFLSFSNSDTVTSCNFDYVINCAGFRTGIIDDLAQQQTKRLVEFKAAYVTHWNSDFFGKWPEVIFHGERGTPKGMAQLTPYPNGYFQLHGMTEEITLFKDGLSRSSELSSQPQLPEKFINKITNGWKESIQQERTEKAIKHLSQFISSFETASTAGKPLYGAQQIPGDDITLRAATINYDGHGYFRAEIVKASSAIECAKQIAQTIKLSTEINTLTQPSNDDVCHLAEQFAIERGYPVELAQTYLEHHHHHH | not soluble |
| MDKLDTLTLFVRIVERGSFSAAAADLGVSRPVATAAIKALEVSLGARLLHRTTRHVRPTAEGSLYYQRCVSILAALEEANRSAGGSISGTIRVDVAGNLARTLLLPALPQFLARYPDITLQIGESERDVDLVREGVDCVIRGGHLPDSEMICRPLAGLQEITCASPTYLARYGTPHTIEGLTGHVMIGFVSSRTQRTLPLSFTQDGRQSEVSLPCRLLTSDADVGAEAARLGFGLYQAPLPRLEADLASGALTEVLADFRPAPLPLSLLYPSNRQLSARVQVFIDWVTALMKPPLAQQASGRLK | not soluble |
| MDKLESNKKAPLYQQLYDAILNKVRSGEYQVGEKIPSEEQLMTIYGVSRVTVRNAIKQLVDENILIKRHGKGTFVSMPSYVESMTAGGSFTESGLKMNRKPTTKIISICLKKATGHVAEALGVEKATEVIVIERLRSLDNMPAIFEIDYFRKEDQFMLDLELTDTSLLDILRQYRGVIASYFDNIIEIALADEKLAEALAISEEEALVKINQTVVDNDNQILYFNEQYILSESYKVAIRSYNK | not soluble |
| MDKQKVALVLSMGGARGIAHIGVIEELLRHNFEITSIAGSSMGAMVGAMYASGKLEECKEWLYSWDKRKMWELADLTLSRDGLVKGDRFIKELKQIIPVMNIEDLPIPYVAMATDIVCDQEVRFDSGNLYDAIRATISIPMLFRPLRKDGMVLIDGGILNPLP | not soluble |
| MDKRLLKRLSAPLLAAALWTIPLHSHADTQPLTSQDTKLLTSQIVDQYAEHIFYNSGAVGMALVVIDNNQVVNRSFGETQPGNNIRPRPDSLIRIASITKLMTSEIMVKLADDGIVKLTDPLKKYAPKGVNVPSYSAKQPIRLLHLASHTSGLPREQPGGPQKRPVFTWPTKDNRWQWLKLAKVTVPPGVKAAYSNLAYDLLADALSRAAGKPYAHLLRDKITAPLGMKNTTLTPTAEQCKRLMIGVGSSRCGNTVAAAGSGGIYSTPEDMQHWMQQFLASDNSAPKRSAKREQALYFQRGDLVSLKGMDVAGQADALGLGWVYMAPKADLPGIMQKTGGGGGFITYMAMVPEKNIGVFVVVTRSQLTKFSNMSDGVNQLVAELVKNH | not soluble |
| MDKTKLYPEAPLTSSQWGELDELVIETARRQLVGRRFIDLYGPLGEGVQSVANDIYMNPEQGDMSFHGKELSLSEPARRVHLTIPLLYKDFILYWRDIEQAKQLGSPIDFSAAANAAQQCALLEDDLIFNGSTEFDVPGIMNVKGKIAHIRSDWMKSGNAFTDVVEARNKLLQLGHTGPYALVLSPELYALIHRVHEGTHVLEIEHIRELMTAGIYQTPVIKGKRGVVIDTGRQNIDLAVAADMQTAFLDTENMNYLFRVYESVVPRIKRPSAICTLEDPNESA | not soluble |
| MDLERLAQRLEGLRGYLDIPQKETRLKELERRLEDPSLWNDPEAARKVSQEAARLRRTVDTFRSLESDLQGLLELMEELPAEEREALKPELEEAAKKLDELYHQTLLNFPHAEKNAILTIQPGAGGTEACDWAEMLLRMYTRFAERQGFQVEVVDLTPGPEAGIDYAQILVKGENAYGLLSPEAGVHRLVRPSPFDASGRRHTSFAGVEVIPEVDEEVEVVLKPEELRIDVMRASGPGAQGVNTTDSAVRVVHLPTGITVTCQTTRSQIKNKELALKILKARLYELERKKREEELKALRGEVRPIEWGSQIRSYVLDKNYVKDHRTGLMRHDPENVLDGDLMDLIWAGLEWKAGRRQGTEEVEAE | soluble |
